Drawing on the supplement of paper PMC12783771, this text covers sfGFP reporter fluorescence for 14 variants.

The chains are these.
B1: library; numbered along this chain (parent)
chain: MNIQIGELAKRTACPVVTIRFYEQEGLLPPPGRSRGNFRLYGEEHVERLQFIRHCRSLDMPLSDVRTLLSYRKRPDQDCGEVNMLLDEHIRQVESRIGALLELKHHLVELREACSGARPAQSCGILQGLSDCVCDTRGTTAHPSD

Variants of B1 are the subject of series [1]. Kind of series: sfGFP reporter fluorescence (15 h) (µM FITC); higher = higher leak. The settings on record: library round: Round 0; ligand: none. Here is the method: (§1)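 Cell-free (BL21 Star DE3 extract, PANOx-SP) biosensing: 1 µL Echo-assembled reactions with linear PbrR variant templates (5 nM) and pPbrR-sfGFP reporter, with 1 µM Pb (lead chloride), 30 µM Zn (zinc acetate) or no ligand; endpoint sfGFP fluorescence after 15 h at 30 °C, calibrated as µM FITC. Round 0 library (alanine scan, site saturation, combinatorial) of PbrR from Cupriavidus metallidurans; 2 biological replicates.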

The variants in series [2] derive from B1. Description: sfGFP reporter fluorescence (15 h) (µM FITC); higher = stronger transcriptional activation. The settings on record: library round: Round 0. On the procedure: as §1
Variants of B1 are the subject of series [3]. Kind of series: sfGFP reporter fluorescence (15 h) (µM FITC); higher = higher leak. The settings on record: library round: Round 1; ligand: none. The procedure, abridged:
(§2)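 With 1 µM lead chloride, 30 µM zinc acetate or no metal present, 1 μL Echo-assembled reactions were incubated 15 hr at 30 °C. They contained BL21 Star (DE3) PANOx-SP extract, 30 μg/mL GamS, the pPbrR-sfGFP reporter plasmid and PCR-made linear PbrR templates Echo-normalized to 5 nM. Endpoint sfGFP fluorescence was read on a Synergy Neo2 at 485/528 nm against FITC standards in 50 mM sodium borate pH 8.5. Results are expressed as µM FITC.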

Series [4] covers variants of B1. Kind of series: sfGFP reporter fluorescence (15 h) (µM FITC); higher = stronger transcriptional activation. To be noted: library round: Round 1. The procedure, abridged:
as §2

± gives the standard deviation of the averaged measurements.

Consider MNIQIGELAKRTACPVVTIRFYEQEGLLPPPGRSRGNFRLYGEEHVERLQFIRHCRSLDMPLSDVRTLLSYRKRPDQDCGEVNMLLDEHIRQVESRIGALLELVHHCVELREACSGARPAQSCGILQMLSDCVCDTRGTTAHPSD [K104V L107C G128M], for which the sfGFP reporter fluorescence in series [1] is 0.701 ± 0.023; in series [2] (ligand: 1 µM Pb), 3.1 ± 0.15; in series [2] (ligand: 30 µM Zn), 4.118 ± 0.038.

With MNIQIGELAKRTACPVVTIRFYEQEGLLPPPGRSRGNFRLYGEEHVERAQFIRHCRSLDMPLSDVRTLLSYRKRPDQDCGEVNMLLDEHIRQVESRIGALLELKHHLVELREACSGARPAQSCGILQGLSDCVCDTRGTTAHPSD [L49A], the sfGFP reporter fluorescence was 0.0619 ± 0.001 in series [1], 0.0614 ± 0.0013 in series [2] (ligand: 1 µM Pb) and 0.0969 ± 0.011 in series [2] (ligand: 30 µM Zn).

For the variant MNIQIGELAKRTACPVVTIRFYEQEGLLPPPGRSRGNFRLYGEEHVERLQFIRHCRSLDMPLSDVRTLLSYRKRPDQDCGEVNMLLDEHIRQVESRIGALLELKHHLVEIREACSGARPAQSCGILQGLSDCVCDTRGTTAHPSD [L110I], the sfGFP reporter fluorescence in series [1] was found to be 0.05571 ± 0.00052; in series [2] (ligand: 1 µM Pb), 0.0579 ± 0.0015; in series [2] (ligand: 30 µM Zn), 0.542 ± 0.036.

Consider MNIQIGELAKRTACPVVTIRFYEQEGLLPPPGRSRGNFRLYGEEHVERLQFIRHCRSLDMPLSDVRTLLSYRKRPDQDCGEVNMLLDEHIRQVESRIGALLELVHHLVELLEACSGARPAQSCGILQGLSDCVCDTRGTTAHPSD [K104V R111L], for which the sfGFP reporter fluorescence amounted to 0.0656 ± 0.0016 in series [3], 0.0694 ± 0.0047 in series [4] (ligand: 1 µM Pb) and 0.0976 ± 0.0039 in series [4] (ligand: 30 µM Zn).

MNIQIGELAKRTACPVVTIRFYEQEGLLPPPGRSRGNFRLYGEEHVERLQFIRHCRSLDMNLSDVRTLLSYRKRPDQDCGEVNMLLDEHIRQVESRIGALLELVHHLVELREACSGARPAQSCGILQGLSDCVCDTRGTTAHPSD [P61N K104V]: the sfGFP reporter fluorescence stood at 0.121 ± 0.016 in series [1], 0.385 ± 0.007 in series [2] (ligand: 1 µM Pb) and 1.77 ± 0.47 in series [2] (ligand: 30 µM Zn).

On to MNIQIGELAKRTACPVVTIRFYEQEGLLPPPGRSRGNFRLYGEEHVERLQFIRHCRSLDMPLSDVRTLLSYRKRPDQDCGEVNMLLDEHWRQVESRIGALLELKHHLVELREACSGARPAQSCGILQGLSDCVCDTRGTTAHPSD [I90W], for which the figures for the sfGFP reporter fluorescence in series [1], in series [2] (ligand: 1 µM Pb) and in series [2] (ligand: 30 µM Zn) were 0.0585 ± 0.0023, 0.0619 ± 0.001 and 0.272 ± 0.0062, respectively.

With MNIQIGELAKRTACHVVTIRFYEQEGLLPPPGRSRGNFRLYGEEHVERLQFIRHCRSLDMPLSDVRTLLSYRKRPDQDCGEVNMLLDEHIRQVESRIGALLELKHHLVELREACSGARPAQSCGILQGLSDCVCDTRGTTAHPSD [P15H], the figures for the sfGFP reporter fluorescence in series [1], in series [2] (ligand: 1 µM Pb) and in series [2] (ligand: 30 µM Zn) were 0.0667 ± 0.001, 0.092 ± 0.0052 and 0.706 ± 0.044, respectively.

On to MNIQIGELAKRTACPVVTIRFYEQEGLLPPPGRSRGNFRLYGEEHVERLQFIRHCRSLDMPLSTVRTLLSYRKRPDQDCGEVNMLLDEHIRQVESRIGALLELKHHLVELREACSGARPAQSCGILGGLSDCVCDTRGTTAHPSD [D64T Q127G], for which the sfGFP reporter fluorescence amounted to 0.0611 ± 0.004 in series [3], 0.0887 ± 0.0049 in series [4] (ligand: 1 µM Pb) and 0.594 ± 0.062 in series [4] (ligand: 30 µM Zn).

Regarding MNIQIGELAKRTACPVVTIRFYEQEGLLPPPGRSRGNFRLYGEEHNERLQFIRHCRSLDMPLSDVRTLLSYRKRPDQDCGEVNMLLDEHIRQVESRIGALLELKHHLVELREACSGARPAQSCGILQGLSDCVCDTRGTTAHPSD [V46N], the sfGFP reporter fluorescence was determined as 0.0535 ± 0.0021 in series [1], 0.0665 ± 0.0096 in series [2] (ligand: 1 µM Pb) and 0.108 ± 0.0023 in series [2] (ligand: 30 µM Zn).

For MNIQIGELAKRTACPVVTIRFYEQEGLLPPPGRSRGNFRLYGEEHKERLQFIRHCRSLDMPLSDVRTLLSYRKRPDQDCGEVNMLLDEHIRQVESRIGALLELKHHLVELREACSGARPAQSCGILQGLSDCVCDTRGTTAHPSD [V46K], the sfGFP reporter fluorescence in series [1] is 0.0599 ± 0.00078; in series [2] (ligand: 1 µM Pb) it was 0.0922 ± 0.0023; in series [2] (ligand: 30 µM Zn), 0.908 ± 0.097.

In the case of MNIQIGELAKRTACPVVTIRFYEQEGLLPPPGRSRGNFRLYGEEHQERLQFIRHCRSLDMPLSDVRTLLSYRKRPDQDCGEVNMLLDEHIRQVESRIGALLELKHHLVELREACSGARPAQSCGILQGLSDCVCDTRGTTAHPSD [V46Q], the sfGFP reporter fluorescence in series [1] was found to be 0.0544 ± 0.0039; in series [2] (ligand: 1 µM Pb) it was 0.0858 ± 0.001; in series [2] (ligand: 30 µM Zn) it was 0.755 ± 0.052.

Take MNIQIGELAARTACPVVTIRFYEQEGLLPPPGRSRGNFRLYGEEHVERLQFIRHCRSLDMPLSDVRTLLSYRKRPDQDCGEVNMLLDEHIRQVESRIGALLELKHHLVELREACSGARPAQSCGILQGLSDCVCDTRGTTAHPSD [K10A]: the sfGFP reporter fluorescence in series [1] was 0.05644 ± 0.00052; in series [2] (ligand: 1 µM Pb), 0.0687 ± 0.0023; in series [2] (ligand: 30 µM Zn) it was 0.567 ± 0.026.

On to MNIQIGRLAKRTACPVVTIRFYEQEGLLPPPGRSRGNFRLYGEEHVERLQFIRHCRSLDMPLSDVRTLLSYRKRPDQDCGEVNMLLDEHIRQVESRIGALLELKHHLVELREACSGARPAQSCGILQGLSDCVCDTRGTTAHPSD [E7R], for which the sfGFP reporter fluorescence is 0.06395 ± 0.00026 in series [1], 0.102 ± 0.0054 in series [2] (ligand: 1 µM Pb) and 1.25 ± 0.16 in series [2] (ligand: 30 µM Zn).

Consider MNIQIGELAKRTACPVVTIRFYEQEGLLPPPGRSRGNFRLYGEEHVERLQFIRHCRSLDMPLSDVRTLLSYRKRPDQDCGEVNMLLDEHIRQVESRIGALLELHHHLVELREACSGARPAQSCGILQGLSDCVCDTRGTTAHPSD [K104H], for which the figures for the sfGFP reporter fluorescence in series [1], in series [2] (ligand: 1 µM Pb) and in series [2] (ligand: 30 µM Zn) were 0.0762 ± 0.0036, 0.189 ± 0.081 and 1.56 ± 0.38, respectively.
